{"source": "the nanobody polyreactivity screen of Harvey et al. (2022)", "assay": "yeast display, Sf9 membrane polyspecificity reagent, FACS + sequencing; frameworks hold sequencing errors", "in_short": "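Nanobodies from a synthetic yeast display library (Saccharomyces cerevisiae BJ5465), induced 36–48 hours with galactose, were stained 1 hour at 4 °C with 10% biotinylated, detergent-solubilized Sf9 membrane reagent, enriched on streptavidin microbeads, then FACS-sorted. Anti-HA (expression) and streptavidin (reagent binding) fluorescence set low and high (top ~1%) gates. Polyreactivity labels come from the gate of origin. Genes were colony-PCR amplified, MiSeq 2 × 250 sequenced and filtered by CDR length.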", "data": [{"sequence": "QVQLVESVVGLVQAGGILRLSCSASGRTFVHYTMGWYRQAPGKETELVAAISGTGTSTYYADSVKGRFTISRDNAKNTVYLQMNSLKPEDTAVYYCARDPYFGFHMGYPRRDYWGQGTHVTVSS", "values": [{"measurement": "polyreactivity (PSR sort gate)", "value": "low polyreactivity"}]}, {"sequence": "QVQLVESGGGLVQAGGSLRLSCAASGSIFVWYAMGWYRQAPGKERELVAAITSSGGSTYYADSVKGRFTISRDYAKNTVYLQLNSLKPEDTAVYYCAKTPSRRGYYWGQGTQVTVSS", "values": [{"measurement": "polyreactivity (PSR sort gate)", "value": "low polyreactivity"}]}, {"sequence": "QVQLVESGGGLVQAGGSLRLSSAASGLTYSVYAMGWYRQAPGKERELVAAISGSGGSTYYADSVKGRFTISRDNAKNTVYLQMNSLKPEDTAVYYCAARYDVHYDGMDYWGLGTQVTVSS", "values": [{"measurement": "polyreactivity (PSR sort gate)", "value": "low polyreactivity"}]}, {"sequence": "QVQLVESGVGLVQAGGSLRLSCAASGSIFWLYAMGWYRQAPGKERELVAAIDSGDSTKYADSVKGRFTISRDTAKNTVYLQMNSLKPEETAVYYSAKDYYYGLEHYGYWGQGTQVTVSS", "values": [{"measurement": "polyreactivity (PSR sort gate)", "value": "low polyreactivity"}]}, {"sequence": "QVQLVESGGGLVQAGGSLRLSCAATGRIFYSNAMGWYRQAPGKERELVAVIRRTGSTYYADSVKGRFTISRDNAKHTVYLQMNSLKPEDTAVYYCATRIPYGRGGNRYDYWGQGTQVTVSS", "values": [{"measurement": "polyreactivity (PSR sort gate)", "value": "low polyreactivity"}]}, {"sequence": "QVQHVESGGGLVQAGGSLRLSCAASGSTFWYNAMGWYRQAPGKERELVAAISYSGGRTYYADSVKGRFTISRDNAKNTVYLQMNSLKPEDTAVYYCNADSRYGGDYWGQGTQVTVSS", "values": [{"measurement": "polyreactivity (PSR sort gate)", "value": "low polyreactivity"}]}, {"sequence": "QVQLVESGGGLVQAGGSLRLSCAASGRTFYWYAMGWYRQAPGKERELVAAISSGGSTYYADSVKGRFTISRDNAKNTVYLQMNSLKPEDTAVYYCAAVTPSGAHRSAYHPISDYWGQGTQVTVSS", "values": [{"measurement": "polyreactivity (PSR sort gate)", "value": "low polyreactivity"}]}, {"sequence": "QVQLVESGGGLVQAVGSLRLSFAASGFTFWYYPMGWYRQAPGKERELLAAITSSGGSTYYADSEKGRFTISRDYAKITVYLQMNSLKPEDTAVYYCAAGAPYRYYYCGQGTQVTVSS", "values": [{"measurement": "polyreactivity (PSR sort gate)", "value": "high polyreactivity"}]}, {"sequence": "QVQIVESGGGLVQAGGSLRLSCTASGRIFYRYAMGWYRQAPGKERELVAAIRYSGGRTYYADSVKGRFTISRDNAKNTVYLQMNSLKQEDTAVYYCAADGQWYYAPFRGGVYENDYWGQGTQVTVSS", "values": [{"measurement": "polyreactivity (PSR sort gate)", "value": "low polyreactivity"}]}, {"sequence": "QVQLVESGGGLVQAGGSLRLSCAASGSIFHTYVMGWYRQAPGKERELVASITRSGGSTYYADSVKGRFTISRDNAKKTVYLQMNSLKPEDTAVYYCAATYRTANHRYYYWGQGTQVTVSS", "values": [{"measurement": "polyreactivity (PSR sort gate)", "value": "high polyreactivity"}]}, {"sequence": "QVQLVESGGGLVQAGGSLRLICAASGFTFLTNAMGWYRQAPGKERELVAAISSGGNTNYADSVKGRFTISRDNAKNTVYLQMNSLKPEDTAVYYCAADNDYLSSQVSYYYWGHGTQVTVSS", "values": [{"measurement": "polyreactivity (PSR sort gate)", "value": "low polyreactivity"}]}, {"sequence": "QVQLVESGGGLVQAGGSLRLSCAASGRTFRGNAMGWYRQAPGKERELVAAISWSGGRTYYADSVKGRFTISRDNAKNTVYLQMNSLKPEDTAVYYCAAGVPKNGQAGYDYWGQGTQVTVSS", "values": [{"measurement": "polyreactivity (PSR sort gate)", "value": "high polyreactivity"}]}, {"sequence": "QVQLVESGGGLVQAGGSLRLSCAASGRIFVGNTMGWYRQAPGKDRELVAAISWRGRTSYADSVKGRFTISRDNAKNTVYLQMNSLKPEDTAVYYCNAEHAGASRYYYIANWMDYWGQGTQVTVSS", "values": [{"measurement": "polyreactivity (PSR sort gate)", "value": "low polyreactivity"}]}, {"sequence": "QVQLVDSGGGLVQAGGSLRLSCAASGNTFRIYAMAWYRQAPGKERELVAAISQSGGSTYYADSVKGRFTISRDNAKNTVYLQMNSLKPEDTAVYYCAATGARRKFYYWGQGTQVTVSS", "values": [{"measurement": "polyreactivity (PSR sort gate)", "value": "high polyreactivity"}]}, {"sequence": "QVQLVESGGGIVQAGGSLRLSCAASGFTLYYYAMGWYRQAPGKERELVAAITSSGTSTYYADSVKGRFTISRDNAKNTVYVQMNSLKPEDTAVYYCAAVSKIYHYRAVRLDDYWGQGTQVTVSS", "values": [{"measurement": "polyreactivity (PSR sort gate)", "value": "low polyreactivity"}]}, {"sequence": "QVQLVESGGGIVQAGGSLRLSCAASGNILFSYAMGWYRQAPGKERELVAAISRSGGSTYYADSVKGRFTISRDNAKNTVYLQMNSLKPEDTAVYYCNAGVYYSYSVTEDYWGQGTQVTVSS", "values": [{"measurement": "polyreactivity (PSR sort gate)", "value": "high polyreactivity"}]}, {"sequence": "QVQLVESGGGLVQAGGSLRLSCAASGSTFTWNVMGWYRQAPGKERELVASITSGDSTYADSVKGRFTISRDNAKNTVYLQMNSLKPEDTAVYYCNVGYDQEKYGYWGQGTQVTVSS", "values": [{"measurement": "polyreactivity (PSR sort gate)", "value": "low polyreactivity"}]}, {"sequence": "QVQLVESGGGLVQAGGSLRLSCAASGSTLYFYAMGGYRQAPGKERELVADITWSGGSTYYADSVKGRFTISRDNAKNTVYLQMNSLKPEDTAVYYCNADDWSTYWYGYPGYVYWGQGTQVTVSS", "values": [{"measurement": "polyreactivity (PSR sort gate)", "value": "high polyreactivity"}]}, {"sequence": "QVQLVESGGGLVQAGGSLRLSCAASGFIFPANAMGWYRQAPGKEREFVAAISRSGGTTYYADSVKGRFTISRDNAKNTVYLQMNSLKPEDTAVYYCAARYAIGPGYDYWGQGTQVTVSS", "values": [{"measurement": "polyreactivity (PSR sort gate)", "value": "high polyreactivity"}]}, {"sequence": "QVQLVESGGGLVQAGGSLRLSCAASGRIFYYNAMGWYRQAPGKERELVASITWSGARTYYADSVKGRFTISRDNAKNTVYLQMNSLKPEDTAVYYCNAATSYYTYTYGYWGQGTQVTVSS", "values": [{"measurement": "polyreactivity (PSR sort gate)", "value": "high polyreactivity"}]}, {"sequence": "QVQLVESGGGLVQAGGSLRLSCAASGFTFPWYAMGWYRQAPGKERELVAAITSGGGSTYYADSVKGRFTISRYNAKNTVYLQMNSLKPEDTAVYYCATSYTKQGFRYYYWGQGTQVTVSS", "values": [{"measurement": "polyreactivity (PSR sort gate)", "value": "high polyreactivity"}]}, {"sequence": "QVQLVESGGGLVQAGGSLRLSCAASGRIFPYYDMGWYREAPGKERELVAAITWNGGSTYYADSVKGRFTISRDNAKNTVYLQMNSLKPADTAVYYCAVEPYYYGEDYWGQGTQVTVSS", "values": [{"measurement": "polyreactivity (PSR sort gate)", "value": "low polyreactivity"}]}, {"sequence": "QLQLVESGGGLVQAGGSLRLSCAASGITFYGYAMGWYRQAPGKERELVAAISSRGGSTYYADSVKGRFTISRDNAKNTVYLQMNRLKPEDTAVYYCAAVYYTGEYYYWGQGTQVTVSS", "values": [{"measurement": "polyreactivity (PSR sort gate)", "value": "high polyreactivity"}]}, {"sequence": "QVQLVESGGGLVQAGGSLSLSCAASGRTMYTNAMGWYIQAPGKERELVAVITLSTDGTYYADSVKGRFTISRDNAKNTVYLQMNSLKPEDTAVYYCAIGDPDGDREIWRLYYWGQGTKVTVSS", "values": [{"measurement": "polyreactivity (PSR sort gate)", "value": "low polyreactivity"}]}, {"sequence": "QVQLVESGGGLVQAGGSLRLSCAASGITFNDYTMGWYRQGPGKERELVAVNTKTGSRTYYADSVKGRFTISRDNAKNTVYLQMNSLKPEDTAVYYCNALYYIHYYQGYGYWGQGTQVTVSS", "values": [{"measurement": "polyreactivity (PSR sort gate)", "value": "high polyreactivity"}]}, {"sequence": "EVQLVESGGGLVQAGGSLRLSCAAYGSTFSTYAMGWYRQAPGKERELVAAISFGGGSTYADSVKGRFTISRDNAKNTVYLQMNSLKPEDTAVYYCNTDLYLYGWYPRDVQQYAGGDYWGQGTQVTVSS", "values": [{"measurement": "polyreactivity (PSR sort gate)", "value": "low polyreactivity"}]}, {"sequence": "QVKLVESGGGLVQAGGSLRLSCAASGGTFQPNARGWNRQAPGKERELVAAISWSDGSTYYADSVKGRFTISRDNAKNTVYLQMNSLKPEDTAVYYCAADFTYYDSPYRDYNYESWGQGTQVTVSS", "values": [{"measurement": "polyreactivity (PSR sort gate)", "value": "low polyreactivity"}]}, {"sequence": "QVQLVESGGGLVQAGGSLRLSCAASGRSFVGNAMGWYRQAPGKERELVASITRGGRTNYADSVNGRFTISRDNAKNTVYLQMNSLKPEDTAVYYCNAPGVTRAYLVGYDYWGQGTQVTVSS", "values": [{"measurement": "polyreactivity (PSR sort gate)", "value": "low polyreactivity"}]}, {"sequence": "QVQLVESGGGLVQAGGSLRLSCAASGFTFGPNTMGWYRQAAGKERELVATITWRGDGSTYYADSVKGRFTISRDNAKNTVYLQMNSLKPEDTAVYYCAAVIRPFSRRDMYYWGQGTQVTVSS", "values": [{"measurement": "polyreactivity (PSR sort gate)", "value": "low polyreactivity"}]}, {"sequence": "QVQLVESGGGLVQAGGSLRLSCAASGRIFGKYAMGWYRQAPGKERELVAAISSSGGSTYYADSVKGRFTISRDNAKNTVYLQMNSLKPEDTAVYYCAADAAVSRVYPYDYWGQGTQVTVSS", "values": [{"measurement": "polyreactivity (PSR sort gate)", "value": "high polyreactivity"}]}, {"sequence": "QVQLVESGGGLVQAGGSLRLSCAASGSIFSTYAMGWYRQAPGKERELVAAISTRGGRTYYADSVKGRFTISRDNAKNTVYLQMNSLKPEDTAVYYCAAKRGKTYQRFDYWGQGTQVTVSS", "values": [{"measurement": "polyreactivity (PSR sort gate)", "value": "high polyreactivity"}]}]}
